Measured values as given in US20060073152A1 (Genentech, published 2006).
No end group written: not given here.

B1: HB-H18 (peptide)
peptide: RTAESLVCYWPGICFAQSER
modifications: not fully specified (bridges); cysteine pairing not given here; also: phage-displayed
notes: on phage
B2: HC-H2 (peptide)
peptide: KLCYFPGICWS
modifications: not fully specified (bridges); cysteine pairing not given here; also: phage-displayed
notes: on phage
B3: HBC-H15 (peptide)
peptide: KTEICYFPGICWMSG
modifications: not fully specified (bridges); cysteine pairing not given here; also: phage-displayed
notes: on phage
B4: HBC-H18 (peptide)
peptide: RDTVCYFPGICWMAS
modifications: not fully specified (bridges); cysteine pairing not given here; also: phage-displayed
notes: on phage
B5: HBC-H17 (peptide)
peptide: HAEICYFPGICWTER
modifications: not fully specified (bridges); cysteine pairing not given here; also: phage-displayed
notes: on phage
B6: HBC-H3 (peptide)
peptide: GTEVCYFPGICWGGG
modifications: not fully specified (bridges); cysteine pairing not given here; also: phage-displayed
notes: on phage
B7: HBC-H4 (peptide)
peptide: GGEICYFPGICRVLP
modifications: not fully specified (bridges); cysteine pairing not given here; also: phage-displayed
notes: on phage
B8: HC-H11 (peptide)
peptide: EVCYFPGICWF
modifications: not fully specified (bridges); cysteine pairing not given here; also: phage-displayed
notes: on phage
B9: HC-H16 (peptide)
peptide: EVCYFPGICWE
modifications: not fully specified (bridges); cysteine pairing not given here; also: phage-displayed
notes: on phage
B10: HB-H13 (peptide)
peptide: ELCYFPGICWT
modifications: not fully specified (bridges); cysteine pairing not given here; also: phage-displayed
notes: on phage
B11: HB-H16 (peptide)
peptide: RMPASLPCYWETICYESSEQ
modifications: not fully specified (bridges); cysteine pairing not given here; also: phage-displayed
notes: on phage

Assays:
rat serum albumin = target: T1, rat serum albumin (rat, UniProt P02770 25-608); assay: phage binding
T1 construct: also called Rat SA; RSA
T1 sequence (P02770 25-608 limits assumed): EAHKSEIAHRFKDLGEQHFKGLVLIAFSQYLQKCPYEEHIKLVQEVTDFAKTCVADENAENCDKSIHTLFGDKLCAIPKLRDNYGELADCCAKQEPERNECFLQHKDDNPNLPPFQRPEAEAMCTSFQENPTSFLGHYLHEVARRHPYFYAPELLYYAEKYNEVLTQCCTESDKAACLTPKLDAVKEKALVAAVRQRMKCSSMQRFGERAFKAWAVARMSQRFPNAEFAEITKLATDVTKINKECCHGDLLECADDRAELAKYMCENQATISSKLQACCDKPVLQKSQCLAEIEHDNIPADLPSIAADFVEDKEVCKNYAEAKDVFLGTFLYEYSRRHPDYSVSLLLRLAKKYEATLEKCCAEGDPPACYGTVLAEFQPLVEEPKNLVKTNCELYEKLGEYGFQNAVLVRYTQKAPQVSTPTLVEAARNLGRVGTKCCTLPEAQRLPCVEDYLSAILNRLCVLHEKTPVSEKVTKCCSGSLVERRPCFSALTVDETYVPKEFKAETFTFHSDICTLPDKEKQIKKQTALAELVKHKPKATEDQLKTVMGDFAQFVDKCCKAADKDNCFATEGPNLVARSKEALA

human serum albumin = target: T2, human serum albumin (human, UniProt P02768 25-609); assay: phage binding
T2 construct: also called Human SA; HuSA

Binder	binding result (rat serum albumin)	binding result (human serum albumin)
QRHMMDFCLPKWGCLWGDGY (not fully specified (bridges); cysteine pairing not given here, on phage) [RB-R4]	binds	
DMCYFPGICWL (on phage) [HC-H13]		binds
B1		binds
VQEVCYFPGICWMQE (on phage) [HBC-H10]		binds
NDEICYFPGVCWKSG (on phage) [HBC-H11]		binds
B2		binds
DSEVCYFPGICWSGT (on phage) [HBC-H1]		binds
QTRSFCADWPRHESCKPLRG (on phage) [HA-H76]		binds
SYAPCYFPGICWMGN (on phage) [HBC-H8]		binds
QGGMGDFCLPQWGCLWGEDL (on phage) [RB-R17]	binds	
GVRTFCQDWPAHNSCKLLRG (on phage) [HA-H73]		binds
LAEMCYFPGICWMSA (on phage) [HBC-H7]		binds
SREVCYYPGICWNGA (on phage) [HBC-H2]		binds
EVRSFCTDWPAHYSCTSLQG (on phage) [HA-H74]		binds
ETCYFPGICWL (on phage) [HC-H12]		binds
REPASLVCYFEDICFVRAEA (on phage) [HB-H3]		binds
QRPIMDFCLPKWGCLWEDGF (on phage) [RB-R7]	binds	
SGAICYVPGICWTHA (on phage) [HB-H7]		binds
VRDMCYFPGICWKSE (on phage) [HBC-H19]		binds
KTCYFPGICWM (on phage) [HC-H10]		binds

Binder	binding result (rat serum albumin)	binding result (human serum albumin)
DICLPRWGCLW (on phage) [RC-R13]	binds	
DICLPVWGCLW (on phage; also called RC-R2; RC-R3) [RC-R1]	binds	
B3		binds
GMCYFPGICWA (on phage) [HC-H4]		binds
DMCYFPGICFN (on phage) [HC-H18]		binds
MEPSRSVCYAEGICFDRGEQ (on phage) [HB-H8]		binds
B4		binds
ERQMVDFCLPKWGCLWGDGF (on phage) [RB-R11]	binds	
B5		binds
RAAESSVCYWPGICFDRTEQ (on phage) [HB-H2]		binds
LVPERIVCYFESICYERSEL (on phage) [HB-H4]		binds
EHDMCYFPGICWIAD (on phage) [HBC-H6]		binds
WDDICFRDWGCLWGS (on phage) [RBC-R7]	binds	
TTEMCYFPGICWKTE (on phage) [HBC-H14]		binds
B6		binds
ASEICYFPGICWMVE (on phage) [HBC-H12]		binds
B7		binds
QGYMVDFCLPRWGCLWGDAN (not fully specified (bridges); cysteine pairing not given here, on phage) [RB-R12]	binds	
IVEMCYYPGICWISP (on phage) [HB-H10]		binds
ELCYFPGICWM (on phage) [HC-H20]		binds

Binder	binding result (rat serum albumin)	binding result (human serum albumin)
DVCYFPGICWM (on phage) [HC-H8]		binds
B8		binds
EVCYFPGICWM (on phage) [HC-H19]		binds
EMCYFPGICWT (on phage) [HC-H9]		binds
EMCYFPGICWS (on phage) [HC-H7]		binds
ALCYFPGICWM (on phage) [HC-H14]		binds
ELCYFPGICWP (on phage) [HC-H15]		binds
EICYFPGICWI (on phage) [HB-H12]		binds
DLCYFPGICWM (on phage) [HC-H3]		binds
B9		binds
B10		binds
EICYFPGICWM (on phage) [HC-H17]		binds
EWDVCLPHWGCLWDG (on phage) [RBC-R16]	binds	
DICYIPGICWM (on phage) [HC-H6]		binds
KMGRVDFCLPKWGCLWGDEL (not fully specified (bridges); cysteine pairing not given here, on phage) [RB-R13]	binds	
QSQLEDFCLPKWGCLWGDGF (not fully specified (bridges); cysteine pairing not given here, on phage) [RB-R15]	binds	
B11		binds
QTELCYFPGICWNES (on phage) [HBC-H13]		binds
